Data published in patent US20200079833A1 (AstraZeneca / MedImmune, published 2020).
Starred links: 1 amine or outer side, 2 acyl side, 3 side chain; linkers in the order of their positions; H or OH if unused. Non-standard residues stand in square brackets, D forms with d. Groups on a side chain read outwards from the residue. Primed or numbered codes have the meaning given here. No end group written: not given here. *: point of attachment. γGlu = O=C(O)[C@H](CCC(=O)[*:2])N[*:1]; Stearoyl = CCCCCCCCCCCCCCCCCC(=O)*; αMeF = C[C@](N)(Cc1ccccc1)C(=O)O; αMeK = C[C@](N)(CCCCN)C(=O)O; αMeS = C[C@](N)(CO)C(=O)O; PEG2′ = not defined here; Aib = CC(C)(N)C(=O)O; Ahx = NCCCCCC(=O)O

T1: glucose-dependent insulinotropic peptide (gastric inhibitory polypeptide) receptor (GIPR) (human, UniProt P48546 22-466)
T1 sequence (looked up): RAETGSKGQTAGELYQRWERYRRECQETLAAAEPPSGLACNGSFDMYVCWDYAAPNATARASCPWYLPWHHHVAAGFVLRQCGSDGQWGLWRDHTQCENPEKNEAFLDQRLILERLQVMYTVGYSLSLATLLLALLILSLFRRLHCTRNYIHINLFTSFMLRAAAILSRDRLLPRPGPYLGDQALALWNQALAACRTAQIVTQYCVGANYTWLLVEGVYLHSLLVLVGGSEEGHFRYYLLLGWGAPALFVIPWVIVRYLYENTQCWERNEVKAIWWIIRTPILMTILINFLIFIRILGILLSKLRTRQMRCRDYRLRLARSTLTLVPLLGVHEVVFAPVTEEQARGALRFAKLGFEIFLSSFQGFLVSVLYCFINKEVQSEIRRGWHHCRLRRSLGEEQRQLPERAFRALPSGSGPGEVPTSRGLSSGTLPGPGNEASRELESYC

B1: SEQ ID NO 193 (peptide)
peptide: H[Aib]EGS[αMeF]TSDV[αMeS]S[αMeF]LEGEAA[αMeK]E[αMeF]IA[αMeF]VVK([γGlu-γGlu-γGlu-Stearoyl])GG-NH2
modifications: N-terminus assumed
SMILES: CCCCCCCCCCCCCCCCCC(=O)N[C@@H](CCC(=O)N[C@@H](CCC(=O)N[C@@H](CCC(=O)NCCCC[C@H](NC(=O)[C@@H](NC(=O)[C@@H](NC(=O)[C@](C)(Cc1ccccc1)NC(=O)[C@H](C)NC(=O)[C@@H](NC(=O)[C@](C)(Cc1ccccc1)NC(=O)[C@H](CCC(=O)O)NC(=O)[C@](C)(CCCCN)NC(=O)[C@H](C)NC(=O)[C@H](C)NC(=O)[C@H](CCC(=O)O)NC(=O)CNC(=O)[C@H](CCC(=O)O)NC(=O)[C@H](CC(C)C)NC(=O)[C@](C)(Cc1ccccc1)NC(=O)[C@H](CO)NC(=O)[C@](C)(CO)NC(=O)[C@@H](NC(=O)[C@H](CC(=O)O)NC(=O)[C@H](CO)NC(=O)[C@@H](NC(=O)[C@](C)(Cc1ccccc1)NC(=O)[C@H](CO)NC(=O)CNC(=O)[C@H](CCC(=O)O)NC(=O)C(C)(C)NC(=O)[C@@H](N)Cc1c[nH]cn1)[C@@H](C)O)C(C)C)[C@@H](C)CC)C(C)C)C(C)C)C(=O)NCC(=O)NCC(N)=O)C(=O)O)C(=O)O)C(=O)O
B2: SEQ ID NO 194 (peptide)
peptide: H[Aib]EGS[αMeF]TSDV[αMeS]S[αMeF]LEGEAA[αMeK]E[αMeF]IA[αMeF]VVK([Ahx-Stearoyl])GG-NH2
modifications: N-terminus assumed
SMILES: CCCCCCCCCCCCCCCCCC(=O)NCCCCCC(=O)NCCCC[C@H](NC(=O)[C@@H](NC(=O)[C@@H](NC(=O)[C@](C)(Cc1ccccc1)NC(=O)[C@H](C)NC(=O)[C@@H](NC(=O)[C@](C)(Cc1ccccc1)NC(=O)[C@H](CCC(=O)O)NC(=O)[C@](C)(CCCCN)NC(=O)[C@H](C)NC(=O)[C@H](C)NC(=O)[C@H](CCC(=O)O)NC(=O)CNC(=O)[C@H](CCC(=O)O)NC(=O)[C@H](CC(C)C)NC(=O)[C@](C)(Cc1ccccc1)NC(=O)[C@H](CO)NC(=O)[C@](C)(CO)NC(=O)[C@@H](NC(=O)[C@H](CC(=O)O)NC(=O)[C@H](CO)NC(=O)[C@@H](NC(=O)[C@](C)(Cc1ccccc1)NC(=O)[C@H](CO)NC(=O)CNC(=O)[C@H](CCC(=O)O)NC(=O)C(C)(C)NC(=O)[C@@H](N)Cc1c[nH]cn1)[C@@H](C)O)C(C)C)[C@@H](C)CC)C(C)C)C(C)C)C(=O)NCC(=O)NCC(N)=O
B3: SEQ ID NO 191 (peptide)
peptide: H[Aib]EGS[αMeF]TSDV[αMeS]S[αMeF]LEGEAA[αMeK]E[αMeF]IA[αMeF]VVK([γGlu-Stearoyl])GG-NH2
modifications: N-terminus assumed
SMILES: CCCCCCCCCCCCCCCCCC(=O)N[C@@H](CCC(=O)NCCCC[C@H](NC(=O)[C@@H](NC(=O)[C@@H](NC(=O)[C@](C)(Cc1ccccc1)NC(=O)[C@H](C)NC(=O)[C@@H](NC(=O)[C@](C)(Cc1ccccc1)NC(=O)[C@H](CCC(=O)O)NC(=O)[C@](C)(CCCCN)NC(=O)[C@H](C)NC(=O)[C@H](C)NC(=O)[C@H](CCC(=O)O)NC(=O)CNC(=O)[C@H](CCC(=O)O)NC(=O)[C@H](CC(C)C)NC(=O)[C@](C)(Cc1ccccc1)NC(=O)[C@H](CO)NC(=O)[C@](C)(CO)NC(=O)[C@@H](NC(=O)[C@H](CC(=O)O)NC(=O)[C@H](CO)NC(=O)[C@@H](NC(=O)[C@](C)(Cc1ccccc1)NC(=O)[C@H](CO)NC(=O)CNC(=O)[C@H](CCC(=O)O)NC(=O)C(C)(C)NC(=O)[C@@H](N)Cc1c[nH]cn1)[C@@H](C)O)C(C)C)[C@@H](C)CC)C(C)C)C(C)C)C(=O)NCC(=O)NCC(N)=O)C(=O)O
B4: SEQ ID NO 195 (peptide)
peptide: H[Aib]EGS[αMeF]TSDV[αMeS]S[αMeF]LEGEAA[αMeK]E[αMeF]IA[αMeF]VVK([Ahx-Ahx-Stearoyl])GG-NH2
modifications: N-terminus assumed
SMILES: CCCCCCCCCCCCCCCCCC(=O)NCCCCCC(=O)NCCCCCC(=O)NCCCC[C@H](NC(=O)[C@@H](NC(=O)[C@@H](NC(=O)[C@](C)(Cc1ccccc1)NC(=O)[C@H](C)NC(=O)[C@@H](NC(=O)[C@](C)(Cc1ccccc1)NC(=O)[C@H](CCC(=O)O)NC(=O)[C@](C)(CCCCN)NC(=O)[C@H](C)NC(=O)[C@H](C)NC(=O)[C@H](CCC(=O)O)NC(=O)CNC(=O)[C@H](CCC(=O)O)NC(=O)[C@H](CC(C)C)NC(=O)[C@](C)(Cc1ccccc1)NC(=O)[C@H](CO)NC(=O)[C@](C)(CO)NC(=O)[C@@H](NC(=O)[C@H](CC(=O)O)NC(=O)[C@H](CO)NC(=O)[C@@H](NC(=O)[C@](C)(Cc1ccccc1)NC(=O)[C@H](CO)NC(=O)CNC(=O)[C@H](CCC(=O)O)NC(=O)C(C)(C)NC(=O)[C@@H](N)Cc1c[nH]cn1)[C@@H](C)O)C(C)C)[C@@H](C)CC)C(C)C)C(C)C)C(=O)NCC(=O)NCC(N)=O
B5: SEQ ID NO 192 (peptide)
peptide: H[Aib]EGS[αMeF]TSDV[αMeS]S[αMeF]LEGEAA[αMeK]E[αMeF]IA[αMeF]VVK([γGlu-γGlu-Stearoyl])GG-NH2
modifications: N-terminus assumed
SMILES: CCCCCCCCCCCCCCCCCC(=O)N[C@@H](CCC(=O)N[C@@H](CCC(=O)NCCCC[C@H](NC(=O)[C@@H](NC(=O)[C@@H](NC(=O)[C@](C)(Cc1ccccc1)NC(=O)[C@H](C)NC(=O)[C@@H](NC(=O)[C@](C)(Cc1ccccc1)NC(=O)[C@H](CCC(=O)O)NC(=O)[C@](C)(CCCCN)NC(=O)[C@H](C)NC(=O)[C@H](C)NC(=O)[C@H](CCC(=O)O)NC(=O)CNC(=O)[C@H](CCC(=O)O)NC(=O)[C@H](CC(C)C)NC(=O)[C@](C)(Cc1ccccc1)NC(=O)[C@H](CO)NC(=O)[C@](C)(CO)NC(=O)[C@@H](NC(=O)[C@H](CC(=O)O)NC(=O)[C@H](CO)NC(=O)[C@@H](NC(=O)[C@](C)(Cc1ccccc1)NC(=O)[C@H](CO)NC(=O)CNC(=O)[C@H](CCC(=O)O)NC(=O)C(C)(C)NC(=O)[C@@H](N)Cc1c[nH]cn1)[C@@H](C)O)C(C)C)[C@@H](C)CC)C(C)C)C(C)C)C(=O)NCC(=O)NCC(N)=O)C(=O)O)C(=O)O

Target: GLP-1 receptor (GLP-1R) (human, UniProt P43220 24-463)
Assay: cell-based or functional assay

Primary assay EC50 (cAMP), GLP-1R n1	Primary assay EC50 (cAMP), GLP-1R n2	Primary assay EC50 (cAMP), Mean pM GLP-1R	Binder
0.03 nM	0.012 nM	20.8 pM	H[Aib]EGS[αMeF]TSDV[αMeS]S[αMeF]LEGEAA[αMeK]E[αMeF]IA[αMeF]VVK([PEG2′-PEG2′-Stearoyl])GG-NH2 [SEQ ID NO 189]
0.33 nM	0.095 nM	213 pM	B1
0.24 nM	0.068 nM	154 pM	B2
0.0097 nM	0.0047 nM	7.2 pM	H[Aib]EGS[αMeF]TSDV[αMeS]S[αMeF]LEGEAA[αMeK]E[αMeF]IA[αMeF]VVK([PEG2′-PEG2′-PEG2′-Stearoyl])GG-NH2 [SEQ ID NO 190]
0.25 nM	0.11 nM	182 pM	B3
0.17 nM	0.046 nM	107 pM	B4
0.17 nM	0.06 nM	114 pM	B5

Target: glucagon receptor (GCGR) (human, UniProt P47871 26-477)
Sequence (P47871 26-477): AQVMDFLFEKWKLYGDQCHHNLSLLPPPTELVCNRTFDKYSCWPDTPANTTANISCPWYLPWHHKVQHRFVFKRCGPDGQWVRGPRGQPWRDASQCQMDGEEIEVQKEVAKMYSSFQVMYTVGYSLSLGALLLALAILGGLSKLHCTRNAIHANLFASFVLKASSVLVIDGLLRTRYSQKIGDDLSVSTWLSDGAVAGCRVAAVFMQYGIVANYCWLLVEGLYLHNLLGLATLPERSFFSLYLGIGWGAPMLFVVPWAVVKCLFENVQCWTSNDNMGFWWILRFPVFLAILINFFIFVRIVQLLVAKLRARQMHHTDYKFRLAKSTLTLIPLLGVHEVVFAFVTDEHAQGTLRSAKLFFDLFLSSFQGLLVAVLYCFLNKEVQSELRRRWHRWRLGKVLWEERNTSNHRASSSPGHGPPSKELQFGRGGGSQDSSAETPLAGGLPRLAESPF
Assay: cell-based or functional assay

Primary assay EC50 (cAMP), Gluc-R, first run	Primary assay EC50 (cAMP), Gluc-R, second run	Binder
27 nM	27 nM	H[Aib]EGS[αMeF]TSDV[αMeS]S[αMeF]LEGEAA[αMeK]E[αMeF]IA[αMeF]VVK([PEG2′-PEG2′-Stearoyl])GG-NH2 [SEQ ID NO 189]
26 nM	26 nM	B1
28 nM	28 nM	B2
26 nM	26 nM	H[Aib]EGS[αMeF]TSDV[αMeS]S[αMeF]LEGEAA[αMeK]E[αMeF]IA[αMeF]VVK([PEG2′-PEG2′-PEG2′-Stearoyl])GG-NH2 [SEQ ID NO 190]
28 nM	28 nM	B3
27 nM	27 nM	B4
27 nM	27 nM	B5

Target: T1, glucose-dependent insulinotropic …
Assay: cell-based or functional assay

Primary assay EC50 (cAMP), GIP-R, first run	Primary assay EC50 (cAMP), GIP-R, second run	Binder
27 nM	27 nM	H[Aib]EGS[αMeF]TSDV[αMeS]S[αMeF]LEGEAA[αMeK]E[αMeF]IA[αMeF]VVK([PEG2′-PEG2′-Stearoyl])GG-NH2 [SEQ ID NO 189]
26 nM	26 nM	B1
28 nM	28 nM	B2
26 nM	26 nM	H[Aib]EGS[αMeF]TSDV[αMeS]S[αMeF]LEGEAA[αMeK]E[αMeF]IA[αMeF]VVK([PEG2′-PEG2′-PEG2′-Stearoyl])GG-NH2 [SEQ ID NO 190]
28 nM	28 nM	B3
27 nM	27 nM	B4
27 nM	27 nM	B5
